B1: RD22 (dsDNA)
DNA 1: CTTCTAACCACTACGTGCCTTCTGCTCCTTCTGC
DNA 2: GCAGAAGGAGCAGAAGGCACGTAGTGGTTAGAAG
B2: MBS-1 (dsDNA)
DNA 1: CGAGACACCCTAACTGACACACATTCT
DNA 2: AGAATGTGTGTCAGTTAGGGTGTCTCG
B3: RD29a DRE (dsDNA)
DNA 1: TAAAAGATATACTACCGACATGAGTTCCAAAAAGC
DNA 2: GCTTTTTGGAACTCATGTCGGTAGTATATCTTTTA

What follows are binders tested against SbMYB44 (Salicornia brachiata, UniProt X2J380 1-269) (assay: EMSA; 15 mM HEPES, 35 mM KCl, 4 mM EDTA (pH 8.0), 1 mM DTT, 1 mM MgCl2, 6% glycerol, room temperature 20 min; 80 ng probe, 40 ug protein in Methods (ng in Results/Fig. 5); SYBR Green stain). Conditions: protein: recombinant; tags: 6xHis (pET28a, EcoRI/XhoI); blunt.
Chain of SbMYB44 (X2J380 entry or part of it): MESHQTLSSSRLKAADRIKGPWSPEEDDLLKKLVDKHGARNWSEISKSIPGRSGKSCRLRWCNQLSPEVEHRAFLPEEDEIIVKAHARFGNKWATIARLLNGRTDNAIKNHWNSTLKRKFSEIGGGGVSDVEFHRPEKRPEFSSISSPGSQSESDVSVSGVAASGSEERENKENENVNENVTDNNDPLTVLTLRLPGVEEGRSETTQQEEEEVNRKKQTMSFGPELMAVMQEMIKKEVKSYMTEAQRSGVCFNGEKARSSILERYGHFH

Row | Binder | binding result
1 | B1 | binds
2 | B2 | binds
3 | B3 | no binding
